# From PMC7926622, “Structure–Function Relationship Study of a Secretory Amoebic Phosphatase: A Computational-Experimental Approach” (International Journal of Molecular Sciences, 2021)
# Tested on: O=P(O)(O)OP(=O)(O)O
# Experiment: purified protein
# Conditions: pH 9.0 (100 mM Tris-HCl; optimum pH), 5 mM MgSO4, 37 °C, 0.1 µM enzyme
# Excerpt: malachite green phosphate release, Michaelis-Menten fit on rEhHAPp49
substance,measurement,value
rEhHAPp49 (Entamoeba histolytica HM-1:IMSS),Km,12 ± 2 µM
same,kcat,0.177 ± 0.00333 s⁻¹
same,kcat/Km,14700 M⁻¹ s⁻¹
